Reference: ChEMBL document CHEMBL2073821, “Immunohistochemical and functional characterization of pH-dependent intestinal absorption of weak organic acids by the monocarboxylic acid transporter MCT1” (J Pharm Pharmacol, 1999)

What was measured:
[1] = substrate: C[C@H](O)C(=O)O; assay: (§1) TP_TRANSPORTER: uptake in MCT1-expressing MDA-MB231 cells; type: functional, cell-based; settings: MDA-MB-231
[2] = substrate: O=C(O)c1ccccc1; assay: as §1; type: functional, cell-based; settings: MDA-MB-231

B1: Monocarboxylate transporter 1 (Rattus norvegicus), P53987 (protein)
chain: MPPAIGGPVGYTPPDGGWGWAVVVGAFISIGFSYAFPKSITVFFKEIEIIFSATTSEVSWISSIMLAVMYAGGPISSILVNKYGSRPVMIAGGCLSGCGLIAASFCNTVQELYFCIGVIGGLGLAFNLNPALTMIGKYFYKKRPLANGLAMAGSPVFLSTLAPLNQAFFGIFGWRGSFLILGGLLLNCCVAGSLMRPIGPQQGKVEKLKSKESLQEAGKSDANTDLIGGSPKGEKLSVFQTVNKFLDLSLFTHRGFLLYLSGNVVMFFGLFTPLVFLSNYGKSKHFSSEKSAFLLSILAFVDMVARPSMGLAANTRWIRPRVQYFFAASVVANGVCHLLAPLSTTYVGFCIYAGVFGFAFGWLSSVLFETLMDLVGPQRFSSAVGLVTIVECCPVLLGPPLLGRLNDMYGDYKYTYWACGVILIIAGLYLFIGMGINYRLVAKEQKAEEKKRDGKEDETSTDVDEKPKKTMKETQSPAPLQNSSGDPAEEESPV
Km [1]: 2280 µM
Km [2]: 3050 µM
